{"source": "patent US10517958B2", "about": "“Compositions and methods for the treatment of platinum-drug resistant cancer” (ZYMEWORKS INC., priority 2016, dated 2019)", "system": "UM-UC13 parental and ex vivo cells", "experiment": "Internalization assay (confocal microscopy)", "type": "cell-based, human", "conditions": "ex vivo and in situ G0-G6 tumor cells", "protocol": "UM-UC13 parental and ex vivo cells were seeded to cover slips and grown to 80% confluency. 100 nM rVAR2-V5 was incubated with the cells for 1 hour at 37° C. and 5% CO2. Cells were subsequently washed with PBS prior to fixation with 4% paraformaldehylde for 15 min at room temperature followed by permeabilization with 0.5% trition for 3 mins and blocked with 3% BSA for 30 mins. Cells were then incubated with primary Anti-V5 antibody from ThermoFischer (R960-25) according to manufacturer's instructions followed by 1 hour incubation with anti-mouse AlexaFluor488 secondary antibody from Invitrogen (A-21202). Cover slips were washed with PBS and mounted in mounting media containing DAPI and analyzed by laser-scanning confocal microscopy."}
{"molecule": "rVAR2: ID1, DBL2X and ID2a domains of the full-length malarial VAR2CSA protein linked to a C-terminal V5 tag (protein) GHSDSGKYDPCEKKLPPYDDNDQWKCQQNSSDGSGKPENICVPPRRERLCTYNLENLKFDKIRDNNAFLADVLLTARNEGEKIVQNHPDTNSSNVCNALERSFADLADIIRGTDQWKGTNSNLEKNLKQMFAKIRENDKVLQDKYPKDQKYTKLREAWWNANRQKVWEVITCGARSNDLLIKRGWRTSGKSDRKKNFELCRKCGHYEKEVPTKLDYVPQFLRWLTEWIEDFYREKQNLIDDMERHREECTREDHKSKEGTSYCSTCKDKCKKYCECVKKWKTEWENQENKYKDLYEQNKNKTSQKNTSRYDDYVKDFFEKLEANYSSLENYIKGDPYFAEYATKLSFILNPSDANNPSGETANHNDEACNCNESGISSVGQAQTSGPSSNKTCITHSSIKTNKKKECKDVKLGVRENDKDLKICVIEDTSLSGVDNCCCQDLLGILQENCSDNKRGSSSNDSCDNKNQDECQKKLEKVFASLTNGYKCDKCKSGTSRSKKKWIWKKSSGNEEGLQEEYANTIGLPPRTQSLYLGNLPKLENVCEDVKDINFDTKEKFLAGCLIVSFHEGKNLKKRYPQNKNSGNKENLCKALEYSFADYGDLIKGTSIWDNEYTKDLELNLQNNFGKLFGKYIKKNNTAEQDTSYSSLDELRESWWNTNKKYIWTAMKHGAEMNITTCNADGSVTGSGSSCDDIPTIDLIPQYLRFLQEWVENFCEQRQAKVKDVITNCKSCKESGNKCKTECKTKCKDECEKYKKFIEACGTAGGGIGTAGSPWSKRWDQIYKRYSKHIEDAKRNRKAGTKNCGTSSTTNAAASTDENKCVQSDIDSFFKHLIDIGLTTPSSYLSNVLDDNICGADKAPWTTYTTYTTTEKCNKERDKSKSQSSDTLVVVNVPSPLGNTPYRYKYACQCKIPTNEETCDDRKEYMNQWSCGSARTMKRGYKNDNYELCKYNGVDVKPTTVRSNSSKLDSGRGELEGKPIPNPLLGLDSTRTGHHHHHH", "values": [{"measurement": "internalization of rVAR2 protein", "value": "retained internalization capacity"}]}
